Assay results from patent US20180094275A1 (AGRESEARCH, published 2018).

T1: Y2H PPD1-AD (PPD1 fused to GAL4 activation domain) (Arabidopsis thaliana)
T1 construct: Prey fusion; also called pDEST22-PPD1
T1 chain: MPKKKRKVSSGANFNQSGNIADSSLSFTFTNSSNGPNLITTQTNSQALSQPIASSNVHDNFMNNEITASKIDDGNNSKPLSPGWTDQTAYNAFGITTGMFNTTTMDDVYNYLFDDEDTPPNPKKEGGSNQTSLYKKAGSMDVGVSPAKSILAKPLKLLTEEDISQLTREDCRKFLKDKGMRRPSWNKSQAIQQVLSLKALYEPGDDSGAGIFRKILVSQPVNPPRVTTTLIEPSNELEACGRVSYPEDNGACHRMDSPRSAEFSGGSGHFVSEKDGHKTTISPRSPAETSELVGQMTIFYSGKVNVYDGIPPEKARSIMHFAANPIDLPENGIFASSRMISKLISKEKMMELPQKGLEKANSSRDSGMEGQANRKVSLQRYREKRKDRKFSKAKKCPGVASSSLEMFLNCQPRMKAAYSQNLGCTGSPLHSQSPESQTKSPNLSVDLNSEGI

T2: Y2H NINJA-AD (NINJA fused to GAL4 activation domain) (Arabidopsis thaliana)
T2 construct: Prey fusion; also called pDEST22-NINJA
T2 chain: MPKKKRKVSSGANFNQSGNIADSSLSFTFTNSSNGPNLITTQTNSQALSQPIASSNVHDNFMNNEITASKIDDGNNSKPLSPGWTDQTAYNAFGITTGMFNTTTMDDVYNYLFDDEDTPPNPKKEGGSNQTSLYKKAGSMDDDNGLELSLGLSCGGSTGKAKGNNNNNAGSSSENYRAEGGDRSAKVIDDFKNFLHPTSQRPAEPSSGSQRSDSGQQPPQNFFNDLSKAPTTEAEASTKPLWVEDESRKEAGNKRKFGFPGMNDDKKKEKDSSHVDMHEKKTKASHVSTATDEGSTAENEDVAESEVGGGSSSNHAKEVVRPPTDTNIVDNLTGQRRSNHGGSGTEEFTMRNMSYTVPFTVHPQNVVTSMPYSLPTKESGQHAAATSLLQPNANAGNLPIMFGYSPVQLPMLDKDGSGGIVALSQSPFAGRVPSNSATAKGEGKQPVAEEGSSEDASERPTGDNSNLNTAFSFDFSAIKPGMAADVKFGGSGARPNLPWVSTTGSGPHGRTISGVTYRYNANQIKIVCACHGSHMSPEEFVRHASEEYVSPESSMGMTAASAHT

T3: Y2H BZR1-AD (BZR1 fused to GAL4 activation domain) (Arabidopsis thaliana)
T3 construct: Prey fusion; also called pDEST22-BZR1
T3 chain: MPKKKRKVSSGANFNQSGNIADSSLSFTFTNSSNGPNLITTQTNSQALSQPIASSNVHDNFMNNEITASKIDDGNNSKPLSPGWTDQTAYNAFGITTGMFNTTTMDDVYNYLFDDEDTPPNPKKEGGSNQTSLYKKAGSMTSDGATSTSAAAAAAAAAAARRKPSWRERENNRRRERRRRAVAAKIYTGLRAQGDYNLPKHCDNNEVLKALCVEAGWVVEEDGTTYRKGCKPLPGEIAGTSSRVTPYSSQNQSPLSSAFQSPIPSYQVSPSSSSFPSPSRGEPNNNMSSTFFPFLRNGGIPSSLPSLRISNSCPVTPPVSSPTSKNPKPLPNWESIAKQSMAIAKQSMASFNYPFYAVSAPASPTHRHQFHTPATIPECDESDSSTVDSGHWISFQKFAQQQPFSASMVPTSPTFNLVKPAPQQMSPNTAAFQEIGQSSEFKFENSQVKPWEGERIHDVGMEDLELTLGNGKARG

T4: Y2H RGA1-AD (DELLA protein RGA1 fused to GAL4 activation domain)
T4 construct: Prey fusion tested against PPD1-DBD as bait; also called DELLA (RGA1)
T4 chain: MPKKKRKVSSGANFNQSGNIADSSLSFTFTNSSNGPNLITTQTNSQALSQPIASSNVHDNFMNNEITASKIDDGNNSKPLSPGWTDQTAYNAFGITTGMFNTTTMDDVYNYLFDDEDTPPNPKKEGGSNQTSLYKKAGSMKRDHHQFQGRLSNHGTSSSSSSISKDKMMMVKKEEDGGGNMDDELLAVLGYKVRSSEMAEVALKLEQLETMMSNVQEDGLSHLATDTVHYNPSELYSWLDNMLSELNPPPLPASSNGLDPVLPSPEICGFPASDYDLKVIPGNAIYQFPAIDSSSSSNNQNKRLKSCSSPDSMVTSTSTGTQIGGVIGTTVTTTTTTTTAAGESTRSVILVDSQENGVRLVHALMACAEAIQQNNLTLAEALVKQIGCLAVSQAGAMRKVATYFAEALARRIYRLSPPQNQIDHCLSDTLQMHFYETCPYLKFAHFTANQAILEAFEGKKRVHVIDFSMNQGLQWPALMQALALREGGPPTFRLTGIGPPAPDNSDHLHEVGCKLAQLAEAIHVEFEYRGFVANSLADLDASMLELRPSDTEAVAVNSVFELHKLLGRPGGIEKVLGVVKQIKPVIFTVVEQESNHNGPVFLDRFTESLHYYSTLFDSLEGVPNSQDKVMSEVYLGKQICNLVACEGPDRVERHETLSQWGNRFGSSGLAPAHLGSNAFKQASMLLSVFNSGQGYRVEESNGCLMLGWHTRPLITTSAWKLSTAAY

B1: Y2H PPD1-DBD (PPD1 fused to GAL4 DNA binding domain) (other)
chain: MKLLSSIEEACNICRLKKLKCSKEKPKCAKCLKNNWECRYSPKTKRSPLTRAHLTEVESRLERLEQLFLLIFPRENLNMILKMDSLQDIKALLTGLFVQDNVNKDAVTDRLASVETDMPLTLRQHRISATSSSEESSNKGQRQLTVSSRSNQTSLYKKAGSMDVGVSPAKSILAKPLKLLTEEDISQLTREDCRKFLKDKGMRRPSWNKSQAIQQVLSLKALYEPGDDSGAGIFRKILVSQPVNPPRVTTTLIEPSNELEACGRVSYPEDNGACHRMDSPRSAEFSGGSGHFVSEKDGHKTTISPRSPAETSELVGQMTIFYSGKVNVYDGIPPEKARSIMHFAANPIDLPENGIFASSRMISKLISKEKMMELPQKGLEKANSSRDSGMEGQANRKVSLQRYREKRKDRKFSKAKKCPGVASSSLEMFLNCQPRMKAAYSQNLGCTGSPLHSQSPESQTKSPNLSVDLNSEGI
notes: Bait fusion expressed in yeast MaV203; also called pDEST32-PPD1; PPD1 bait
B2: Y2H TPL-DBD (TOPLESS fused to GAL4 DNA binding domain) (other)
chain: MKLLSSIEEACNICRLKKLKCSKEKPKCAKCLKNNWECRYSPKTKRSPLTRAHLTEVESRLERLEQLFLLIFPRENLNMILKMDSLQDIKALLTGLFVQDNVNKDAVTDRLASVETDMPLTLRQHRISATSSSEESSNKGQRQLTVSSRSNQTSLYKKAGSMSSLSRELVFLILQFLDEEKFKETVHKLEQESGFFFNMKYFEDEVHNGNWDEVEKYLSGFTKVDDNRYSMKIFFEIRKQKYLEALDKHDRPKAVDILVKDLKVFSTFNEELFKEITQLLTLENFRENEQLSKYGDTKSARAIMLVELKKLIEANPLFRDKLQFPTLRNSRLRTLINQSLNWQHQLCKNPRPNPDIKTLFVDHSCGPPNGARAPSPVNNPLLGGIPKAGGFPPLGAHGPFQPTASPVPTPLAGWMSSPSSVPHPAVSAGAIALGGPSIPAALKHPRTPPTNASLDYPSADSEHVSKRTRPMGISDEVNLGVNMLPMSFSGQAHGHSPAFKAPDDLPKTVARTLSQGSSPMSMDFHPIKQTLLLVGTNVGDIGLWEVGSRERLVQKTFKVWDLSKCSMPLQAALVKEPVVSVNRVIWSPDGSLFGVAYSRHIVQLYSYHGGEDMRQHLEIDAHVGGVNDISFSTPNKQLCVITCGDDKTIKVWDAATGVKRHTFEGHEAPVYSVCPHYKENIQFIFSTALDGKIKAWLYDNMGSRVDYDAPGRWCTTMAYSADGTRLFSCGTSKDGESFIVEWNESEGAVKRTYQGFHKRSLGVVQFDTTKNRYLAAGDDFSIKFWDMDAVQLLTAIDGDGGLQASPRIRFNKEGSLLAVSGNENVIKIMANSDGLRLLHTFENISSESSKPAINSIAAAAAAAATSAGHADRSANVVSIQGMNGDSRNMVDVKPVITEESNDKSKIWKLTEVSEPSQCRSLRLPENLRVAKISRLIFTNSGNAILALASNAIHLLWKWQRNERNATGKATASLPPQQWQPASGILMTNDVAETNPEEAVPCFALSKNDSYVMSASGGKISLFNMMTFKTMATFMPPPPAATFLAFHPQDNNIIAIGMDDSTIQIYNVRVDEVKSKLKGHSKRITGLAFSNVLNVLVSSGADAQLCVWNTDGWEKQRSKVLPLPQGRPNSAPSDTRVQFHQDQAHFLVVHETQLAIYETTKLECMKQWAVRESLAPITHATFSCDSQLVYASFMDATVCVFSSANLRLRCRVNPSAYLPASLSNSNVHPLVIAAHPQEPNMFAVGLSDGGVHIFEPLESEGKWGVAPPAENGSASGAPTAPSVGASASDQPQR
notes: Bait fusion; also called pDEST32-TPL

How the values were obtained:
[1] = molecular target: T1, Y2H PPD1-AD (PPD1 fused to GAL4 …); assay: yeast two-hybrid
[2] = molecular target: T2, Y2H NINJA-AD (NINJA fused to GAL4 …); assay: yeast two-hybrid
[3] = molecular target: T3, Y2H BZR1-AD (BZR1 fused to GAL4 …); assay: yeast two-hybrid (ProQuest, MaV203)
[4] = molecular target: T4, Y2H RGA1-AD (DELLA protein RGA1 fused …); assay: yeast two-hybrid, PPD1-DBD as bait, selective medium with 15 mM 3AT
[5] = molecular target: T3, Y2H BZR1-AD (BZR1 fused to GAL4 …); assay: yeast two-hybrid

Binder | binding result [1] | binding result [2] | binding result [3] | binding result [4] | binding result [5]
B1 | binds | binds | no binding | binds | 
B2 |  | binds |  |  | binds
